# Results as given in US20220162327A1, “ANTI-CCR5 AGENTS AND METHODS OF TREATMENT THAT BLOCK CANCER METASTASIS OR ENHANCE CELL DEATH INDUCED BY DNA DAMAGING CHEMOTHERAPY” (CytoDyn Inc., priority 2019, published 2022).
# Where two headings read alike, the source gives them in different places.
# What was measured:
# [1] = tested on: CCR5+ metastatic Triple Negative Breast Cancer; assay: Phase Ib/II study, CTC/EMT/CAML assessment in blood (LifeTrac Assay); type: in vivo, human
# From the text: (§1) Each treatment cycle consisted of 21 days. […] This treatment regimen was used for all subjects enrolled in the mTNBC study, unless otherwise indicated.
# The blood sample for circulating tumor cells (CTC) and cancer associated macrophage-like cells (CAMLs) assessment was collected at baseline and subsequently at Day 1 of each treatment cycle to assess changes in CTCs and CAMLs after treatment and to perform correlative analysis between CCR5 expression and PD-L1 expression.
# Creatv Microtech has developed a size based technology and detection methodology (LifeTrac Assay) that enables the collection and characterization of all cancer associated cells in the blood i.e., CTCs, epithelial mesenchymal transition cells (EMTs) and CAMLs.[Adams Cytometry 2015, Adams RSC 2014]. The CellSieve™ filtration platform is used to capture CAMLs and CTCs.
# [2] = tested on: CCR5+ metastatic Triple Negative Breast Cancer; assay: Phase Ib/II study, tumor imaging; type: in vivo, human
# From the text: The primary objective of Phase 1b is to determine the safety, tolerability and maximum tolerate dose (MTD) of PRO 140 in patients with TNBC, when combined with carboplatin to define a recommended Phase II dose of the combination. The primary objective of phase 2b is to evaluate the impact on progression-free survival (PFS) of the combination PRO 140 and carboplatin in patients with CCR5+ TNBC previously treated with anthracyclines and taxanes in neoadjuvant and adjuvant setting.
# The baseline target lesion was identified in the right upper lung at the size of 25 mm. The lesion was described as pleural based, major fissure, soft tissue density nodule in the right hilum.
# as §1
# Scans were taken at the end of every two cycles (every 6 weeks). The subject had Scan 1 after six weeks, a Scan 2 after 12 weeks, and Scan 3 after 18 weeks (Table 4).
# CCR5 [3] = biological target: T1, CCR5 (Homo sapiens, UniProt P51681); conditions: CHO-K1 cells, cited from earlier work
# [4] = human, in vivo; cited from earlier work
# CCR5 [5] = biological target: T1, CCR5; assay: CCL5 induced calcium responses in MDA-MB-231-CCR5 cells (Fluo-4, living cell image); type: cell-based; set-up: expressed in transfected cells; host or cells: MDA-MB-231 human breast cancer cell line (MDA-MB-231-CCR5)
# From the text: FIG. 2A, FIG. 2B, FIG. 2C, and FIG. 2D. […] CCR5 activation induces calcium flux (Mueller et al., 2002; Petkovic et al., 2004). […] Fluo-4 was used as calcium concentration indicator. The CCR5 antagonist, vicriviroc, was used as positive control (FIGS. 2A and 2D).
# [6] = Subject 706-001, C1D1, with carboplatin
# [7] = Subject 706-001, C2D1, with carboplatin
# [8] = Subject 706-001, C3D1, with carboplatin
# [9] = Subject 706-001, C4D1, with carboplatin
# [10] = Subject 706-001, C5D1, with carboplatin
# [11] = Subject 706-001, C6D1, with carboplatin
# [12] = second subject, after two weeks of treatment, with carboplatin
# [13] = Subject 706-001, scan 3, with carboplatin
# [14] = Subject 706-001, with carboplatin
# T1 sequence (P51681 whole entry): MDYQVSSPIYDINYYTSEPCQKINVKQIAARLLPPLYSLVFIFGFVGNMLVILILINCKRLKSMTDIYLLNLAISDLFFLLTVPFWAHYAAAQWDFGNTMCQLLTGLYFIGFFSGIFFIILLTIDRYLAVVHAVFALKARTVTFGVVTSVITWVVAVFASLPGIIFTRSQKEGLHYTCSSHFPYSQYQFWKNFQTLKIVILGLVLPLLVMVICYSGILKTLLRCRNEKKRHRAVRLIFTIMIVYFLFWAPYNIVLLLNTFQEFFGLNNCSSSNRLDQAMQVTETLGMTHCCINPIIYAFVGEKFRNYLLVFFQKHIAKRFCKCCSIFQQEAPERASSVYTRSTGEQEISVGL
molecule,measurement,setting,value
"leronlimab: humanized monoclonal antibody to CCR5; humanized version of the murine mAb PA14 (antibody, chains of the INN, looked up, V domains shown) VH: EVQLVESGGGLVKPGGSLRLSCAASGYTFSNYWIGWVRQAPGKGLEWIGDIYPGGNYIRNNEKFKDKTTLSADTSKNTAYLQMNSLKTEDTAVYYCGSSFGSNYVFAWFTYWGQGTLVTVSS VL: DIVMTQSPLSLPVTPGEPASISCRSSQRLLSSYGHTYLHWYLQKPGQSPQLLIYEVSNRFSGVPDRFSGSGSGTDFTLKISRVEAEDVGVYYCSQSTHVPLTFGQGTKVEIK",CAML-Total,[1]; [6],1
same,CTC-Total,[1]; [6],0
same,EMT-Total,[1]; [6],2
same,"Largest CAML, PD-L1",[1]; [6],47 μm
same,"Number of Apoptotic CTC, PD-L1",[1]; [6],0
same,"Number of Apoptotic CTCs, CCR5",[1]; [6],0
same,"Number of CAMLs, CCR5",[1]; [6],0
same,"Number of CAMLs, PD-L1",[1]; [6],1
same,"Number of CTCs, CCR5",[1]; [6],0
same,"Number of CTCs, PD-L1",[1]; [6],0
same,"Number of EMTs, CCR5",[1]; [6],1
same,"Number of EMTs, PD-L1",[1]; [6],1
same,CAML-Total,[1]; [7],3
same,CTC-Total,[1]; [7],0
same,EMT-Total,[1]; [7],0
same,"Largest CAML, CCR5",[1]; [7],27 μm
same,"Largest CAML, PD-L1",[1]; [7],69 μm
same,"Number of Apoptotic CTC, PD-L1",[1]; [7],0
same,"Number of Apoptotic CTCs, CCR5",[1]; [7],0
same,"Number of CAMLs, CCR5",[1]; [7],1
same,"Number of CAMLs, PD-L1",[1]; [7],2
same,"Number of CTCs, CCR5",[1]; [7],0
same,"Number of CTCs, PD-L1",[1]; [7],0
same,"Number of EMTs, CCR5",[1]; [7],0
same,"Number of EMTs, PD-L1",[1]; [7],0
same,"Largest CAML, CCR5",[1]; [8],39 μm
same,"Largest CAML, PD-L1",[1]; [8],30 μm
same,"Number of Apoptotic CTC, PD-L1",[1]; [8],0
same,"Number of Apoptotic CTCs, CCR5",[1]; [8],0
same,"Number of CAMLs, CCR5",[1]; [8],3
same,"Number of CAMLs, PD-L1",[1]; [8],1
same,"Number of CTCs, CCR5",[1]; [8],0
same,"Number of CTCs, PD-L1",[1]; [8],0
same,"Number of EMTs, CCR5",[1]; [8],0
same,"Number of EMTs, PD-L1",[1]; [8],0
same,CAML-Total,[1]; [9],1
same,CTC-Total,[1]; [9],0
same,EMT-Total,[1]; [9],0
same,"Largest CAML, CCR5",[1]; [9],0 μm
same,"Largest CAML, PD-L1",[1]; [9],31 μm
same,"Number of Apoptotic CTC, PD-L1",[1]; [9],0
same,"Number of Apoptotic CTCs, CCR5",[1]; [9],0
same,"Number of CAMLs, CCR5",[1]; [9],0
same,"Number of CAMLs, PD-L1",[1]; [9],1
same,"Number of CTCs, CCR5",[1]; [9],0
same,"Number of CTCs, PD-L1",[1]; [9],0
same,"Number of EMTs, CCR5",[1]; [9],0
same,"Number of EMTs, PD-L1",[1]; [9],0
same,CAML-Total,[1]; [10],3
same,CTC-Total,[1]; [10],0
same,EMT-Total,[1]; [10],0
same,"Largest CAML, CCR5",[1]; [10],33 μm
same,"Largest CAML, PD-L1",[1]; [10],56 μm
same,"Number of Apoptotic CTC, PD-L1",[1]; [10],0
same,"Number of Apoptotic CTCs, CCR5",[1]; [10],0
same,"Number of CAMLs, CCR5",[1]; [10],1
same,"Number of CAMLs, PD-L1",[1]; [10],2
same,"Number of CTCs, CCR5",[1]; [10],0
same,"Number of CTCs, PD-L1",[1]; [10],0
same,"Number of EMTs, CCR5",[1]; [10],0
same,"Number of EMTs, PD-L1",[1]; [10],0
same,CAML-Total,[1]; [11],8
same,CTC-Total,[1]; [11],0
same,EMT-Total,[1]; [11],0
same,CCR5 expression on cancer-associated cells,"[1]; first subject, after approximately 11 weeks of treatment",large reductions in CCR5 expression
same,circulating tumor cells (CTC) or putative metastatic tumor cells in the peripheral blood,"[1]; first subject, following 16 weeks of treatment",no detectable circulating tumor cells (CTC) or putative metastatic tumor cells
same,levels of CTC,[1]; [12],no detectable levels of CTC
same,reduction in EMT cells,[1]; [12],70%
same,CAML count,"[1]; second subject, following at least two weeks of treatment, initial count 45",30
same,decrease of total CTC+EMT counts,"[1]; third subject, first two weeks of treatment, with carboplatin",75%
same,decrease in size of target lesion,[2]; [13],20%
same,new lung nodules,[2]; [13],no new lung nodules found
same,decrease in size of target lesion (as measured by tumor volume),[2]; [14],greater than 20%
same,"new lymphadenopathy or metastatic disease on diagnostic CT chest, abdomen and pelvis",[2]; [14],No new lymphadenopathy or metastatic disease reported
same,right hilar lymph node,[2]; [14],resolved
same,maximum standardized uptake values (SUVs) of right lung metastasis,"[2]; Subject 706-001, with carboplatin, previously 15.3",6.8
same,effect on chemotaxis,CCR5 [3]; administered with CCL5,reduces CCL5-induced chemotaxis
same,effect on chemotaxis,CCR5 [3]; alone,does not affect chemotaxis of CHO-K1 cells
same,adverse events,[4],without significant adverse events reported
same,effect on CCL5 induced calcium responses,CCR5 [5],can block CCL5 induced calcium responses
same,calcium response at calcium peak induce by CCL5,"CCR5 [5]; Fluo-4, control cells 1.23±0.10, P<0.001",0.54±0.13
same,effect on CCL5 induced calcium responses,CCR5 [5]; listed as Leronlimab,abrogated CCL5 induced Ca^+2 flux
